From paper PMC5071372, “Combining biophysical methods to analyze the disulfide bond in SH2 domain of C-terminal Src kinase” (Biophysics Reports, 2016)
“Also recorded” adds a separate entry of the source.

Legend:
[1] = Guanidine hydrochloride-induced unfolding monitored by tryptophan fluorescence; type: physicochemical; settings: guanidine hydrochloride 0 to 6 mol/L, two-state linear extrapolation to H2O
Procedure: Intrinsic fluorescence of oxidized and reduced form of L-SH2 domain, as well as that of the cysteine mutants C122S and C164S L-SH2, was measured to examine the role of the disulfide bond in the stability of the Csk SH2 domain. […] The thermodynamic stability of these oxidized and reduced L-SH2 domains, as well as that of the mutants at equilibrium, were characterized by determining the free energy of unfolding by using guanidine hydrochloride-induced unfolding experiments monitored by tryptophan fluorescence (Fig. 4A). The curves were fitted using the linear extrapolation model to obtain the ∆G for unfolding in H2O (Santoro and Bolen [1988]). […]
Fluorescence titrations were performed at 25 °C in 3 mL of 50 mmol/L Tris-HCl (pH 7.5) using excitation and emission wavelengths of 288 nm and 320 nm, respectively. […] The concentrations of guanidine hydrochloride of the solutions were determined by measuring the index of refraction and by using the following equation: d/d 0 = 1 + 0.2710 W + 0.0330 W ^2 (Tanford et al. [1966]), where W is the weight fraction of guanidine hydrochloride in the solution, d is the density of the solution, and d 0 is the density of water. […] The signals were normalized to the fraction of unfolded species using the standard relation F unf = (I − I N)/(I U − I N), where N and U stand for the fluorescence intensity of the native and fully unfolded species, respectively. […]

Csk L-SH2 disulfide bond = test: NMR-monitored reduction of oxidized SH2 by DTT; type: physicochemical, human; settings: 10 mmol/L DTT, 50 mmol/L Tris-HCl pH 7.5, 1.0 mmol/L EDTA, 0.01% NaN3, 5% D2O, 298 K, NMR peak intensity
Description: During purification of the Csk L-SH2 domain, 50 mmol/L DTT was used to elute the protein from the chitin resin. The L-SH2 was used in reduced form, given that DTT was used to cleave L-SH2 from its intein fusion partner. Following elution of the protein from the ion exchange column, the L-SH2 became a mixture of the reduced and oxidized forms. The fully oxidized form was obtained by exposing the protein to air for several days.
Fig. 3 Comparison of the oxidized and reduced form of SH2. A Comparison of ^1H–^15N HSQC of oxidized (red) and reduced (green) SH2. B Combined chemical shift change of oxidized and reduced form SH2. The difference was calculated as ∆δ tot = [(∆δ H)^2 + (0.154∆δ N)^2]^1/2. […]
All NMR experiments were performed at 298 K on 800 MHz spectrometers equipped with triple-resonance cryoprobes. […] The combined change in chemical shift of a particular residue upon ligation with the kinase domain was calculated as ∆δ = [(∆δ H)^2 + (0.154∆δ N)^2]^1/2, where ∆δ H and ∆δ N correspond to the changes in amide proton and nitrogen chemical shift, respectively. The weight factor for ^1H and ^15N is determined from the ratio of the average variances of the amide nitrogen and proton chemical shifts observed for the 20 common amino acid residues in proteins deposited in the BioMagResBank (Mulder et al. [1999]). […]

full-length Csk = settings: ref Mills et al. [2007], cited from earlier work
Description: Disulfide bonds are mostly found in secretory proteins and in extracellular domains of membrane proteins. Cytosolic proteins, which contain cysteine residues that are in close proximity to each other, may function as oxidation sensors; when the reductive potential of the cell fails, they oxidize and trigger cellular response mechanisms (Sevier and Kaiser [2002]). Mills et al. studied the unique disulfide bond of Csk SH2 that is absent in other known SH2 domains.

B1: oxidized L-SH2: human Csk SH2 domain with SH3–SH2 linker, residues A73–A178, disulfide oxidized (PDB 3EAC) (protein)
chain: AGTKLSLMPWFHGKITREQAERLLYPPETGLFLVRESTNYPGDYTLCVSCDGKVEHYRIMYHASKLSIDEEVYFENLMQLVEHYTSDADGLCTRLIKPKVMEGTVA
modifications: disulfide bond C122–C164; left off: intein, end not stated, cleaved
- free energy of unfolding ΔG U,W^0 [1]: 10.1 ± 0.382 kcal/mol
- t1/2 of the reduction reaction (Csk L-SH2 disulfide bond): 2.6 ± 0.1 h

B2: reduced L-SH2: human Csk SH2 domain with SH3–SH2 linker, residues A73–A178, reduced form (protein)
chain: B1 chain
modifications: left off: intein, end not stated, cleaved
notes: human Csk SH2 domain with SH3–SH2 linker, residues A73–A178, reduced form
- free energy of unfolding ΔG U,W^0 [1]: 6.57 ± 0.17 kcal/mol

B3: full-length Csk: C-terminal Src kinase, full length (protein, UniProt P41240 1-450, looked up)
chain: MSAIQAAWPSGTECIAKYNFHGTAEQDLPFCKGDVLTIVAVTKDPNWYKAKNKVGREGIIPANYVQKREGVKAGTKLSLMPWFHGKITREQAERLLYPPETGLFLVRESTNYPGDYTLCVSCDGKVEHYRIMYHASKLSIDEEVYFENLMQLVEHYTSDADGLCTRLIKPKVMEGTVAAQDEFYRSGWALNMKELKLLQTIGKGEFGDVMLGDYRGNKVAVKCIKNDATAQAFLAEASVMTQLRHSNLVQLLGVIVEEKGGLYIVTEYMAKGSLVDYLRSRGRSVLGGDCLLKFSLDVCEAMEYLEGNNFVHRDLAARNVLVSEDNVAKVSDFGLTKEASSTQDTGKLPVKWTAPEALREKKFSTKSDVWSFGILLWEIYSFGRVPYPRIPLKDVVPRVEKGYKMDAPDGCPPAVYEVMKNCWHLDAAMRPSFLQLREQLEHIKTHELHL
modifications: full-length
- kinase activity upon formation of the disulfide bond in the SH2 domain (full-length Csk; full-length Csk): decreases by an order of magnitude; also recorded: reduced by an order of magnitude
- kinase activity on prevention of the reduction of disulfide bond (full-length Csk; restored upon re-introduction of reducing agent): tenfold reduction in kinase activity
